Measurements from patent US11286293.
Several values for one entry are separate records, joined by “and”; a condition that tells them apart may be missing. Identical values can stand only once. Like-named read-outs stand apart in the source and are kept apart here.

Tests used:
Test in all cases: SPR
[1] = biological target: T1, Tissue factor (TF) extracellular domain (human, UniProt P13726)
T1 chain: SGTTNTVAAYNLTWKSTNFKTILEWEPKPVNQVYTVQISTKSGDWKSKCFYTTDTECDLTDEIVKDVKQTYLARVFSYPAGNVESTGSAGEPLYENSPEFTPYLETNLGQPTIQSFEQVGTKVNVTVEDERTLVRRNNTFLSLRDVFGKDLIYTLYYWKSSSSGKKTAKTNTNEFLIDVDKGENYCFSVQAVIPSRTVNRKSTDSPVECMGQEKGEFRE

[2] = biological target: T1, Tissue factor (TF) extracellular domain
[3] = biological target: T1, Tissue factor (TF) extracellular domain
[4] = biological target: T1, Tissue factor (TF) extracellular domain

B1: D3H44 WT Fab (antibody)
chain 1: EVQLVESGGGLVQPGGSLRLSCAASGFNIKEYYMHWVRQAPGKGLEWVGLIDPEQGNTIYDPKFQDRATISADNSKNTAYLQMNSLRAEDTAVYYCAR
chain 2: DIQMTQSPSSLSASVGDRVTITCRASRDIKSYLNWYQQKPGKAPKVLIYYATSLAEGVPSRFSGSGSGTDYTLTISSLQPEDFATYYCLQHG
In the case of B1, the Kd [1] is reported as 0.0522 nM and 0.0622 nM, the Kd [2] is reported as 0.06 nM and the Kd [3] is reported as 0.056 nM. It also gave a Kd [4] of 0.052 nM.
